US8969060B2, “Modified glucose dehydrogenase” (Ikeda Food Research Co., Ltd., priority 2011, dated 2015)
Several values for one entry are separate records, joined by “and”; a condition that tells them apart may be missing. Equal values may be shown once.

Test: Relative enzymatic activity of GLD (DCIP/1-m-PMS, plate reader, yeast culture supernatant) with 1,10-phenanthroline present
Type: biochemical
Conditions: random-mutation mutants, sample value with inhibitor at 1 mM / blank value, inhibitor not named in Table 1
Experimental: The susceptibility defined in the present specification is evaluated in terms of a relative activity that is determined in a system wherein the inhibitor coexists or not. The relative activity is derived from a relative value (%) of an enzymatic activity (a sample value) obtained with the addition of the inhibitor in the determination of the enzymatic activity described in the present specification as compared with an enzymatic activity (a blank value) as “100%” obtained without the addition of the inhibitor in the same determination. Thus, the higher the relative activity is, the less the susceptibility to the inhibitor is (or the more the susceptibility to the inhibitor is reduced), vice versa.
The enzymatic activity is determined in the following manner in Examples 3 and 6 wherein a plate reader (Japan Molecular Device Corporation, SpectraMax Plus384) is used. Thus, culture supernatant that had been diluted in advance with an appropriate magnification is added to a 96-well microplate with an amount of 100 μl per well. A reagent for the determination of the enzymatic activity comprising phosphate buffer (pH 7.0), 1.0 M D-glucose, 3 mM DCIP, 3 mM 1-m-PMS and methanol with a volume ratio of 0.1:1:0.14:0.2:0.06 is added to the 96-well microplate with an amount of 100 μl per well, and a change in the absorbance of DCIP at 600 nm (ΔABS/min) is then determined. The enzymatic activity can be calculated by conversion in proportion to a change in the absorbance of an enzyme solution for which the enzymatic activity has already been known by the above-mentioned activity determination procedure using the spectrophotometer.
In the following examples, a value of the enzymatic activity determined by the spectrometer or plate reader using the above reagent composition is considered as a blank value. On the other hand, a sample value is determined using a methanol solution comprising the inhibitor such as 1,10-phenanthroline or proflavin hydrochloride at a final concentration of 1 mM instead of the methanol. Enzymatic activity (unit/mL)=(−ΔABS/16.3)×3.0/0.05×(Dilution ratio of enzyme) [Equation 1]
Into each well of a 96-well microplate (manufactured by Nunc, Inc.), a YPD medium containing 125 μL of 1.0% (w/v) yeast extract (manufactured by BD), 2.0% (w/v) tryptone (manufactured by BD), 2.0% (w/v) glucose (manufactured by Wako Pure Chemical Industries, Ltd.) was dispensed, and the transformant colonies obtained in Example 2 were inoculated thereinto one by one.
After shaking culture at 30° C. and 1,000 rpm for 24 hours, the culture mixture was centrifuged and the supernatant was collected.
According to the above-mentioned method for the determination of enzymatic activity, a blank value and a sample value were determined using a plate reader, and the relative activity (%) was obtained by dividing the sample value by the blank value.

Row | Molecule | Relative Activity
1 | N287D + D343E + K494E: modified GLD: SEQ ID NO: 1 with substitutions N287D, D343E, K494E (protein, listed as Aspergillus terreus, SIGNAL (1)..(19)) MLGKLSFLSALSLAVAAPLSNSTSAKYDYIVIGGGTSGLAVANRLSEDPNVNVLILEAGGSVWNNPNVTNVDGYGLAFGSDIDWQYQSVNQPYGGNLSQVLRAGKALGGTSTINGMAYTRAEDVQIDAWETIGNTGWTWKNLFPYYRKSENFTVPTKSQTSLGASYEAGAHGHEGPLDVAFTQIESNNLTTYLNRTFQGMGLPWTEDVNGGKMRGFNLYPSTVNLEEYVREDAARAYYWPYKSRPNLHVLLNTFANRIVWDGEAHDGHITASGVEITSRNGTVRVIDAEKEVIVSAGALKSPAILELSGIGNPSVLDKHNIPVKVNLPTVGENLQDQVNSHMEASGNTSISGTKAVSYPDVYDVFGDEAESVAKQIRANLKQYAADTAKANGNIMKAADLERLFEVQYDLIFKGRVPIAEVLNYPGSATSVFAEFWALLPFARGSVHIGSSNPAEFPVINPNYFMLDWDAKSYVAVAKYIRRSFESYPLSSIVEESTPGYDVIPRNASEQSWKEWVFDKNYRSNFHPVGTAAMMPREIGGVVDERLNVYGTTNVRVVDASVLPFQVCGHLVSTLYAVAERAADLIKADAGRR | 52.2%
2 | V431M: modified GLD: SEQ ID NO: 1 with substitution V431M (protein, listed as Aspergillus terreus, SIGNAL (1)..(19)) MLGKLSFLSALSLAVAAPLSNSTSAKYDYIVIGGGTSGLAVANRLSEDPNVNVLILEAGGSVWNNPNVTNVDGYGLAFGSDIDWQYQSVNQPYGGNLSQVLRAGKALGGTSTINGMAYTRAEDVQIDAWETIGNTGWTWKNLFPYYRKSENFTVPTKSQTSLGASYEAGAHGHEGPLDVAFTQIESNNLTTYLNRTFQGMGLPWTEDVNGGKMRGFNLYPSTVNLEEYVREDAARAYYWPYKSRPNLHVLLNTFANRIVWDGEAHDGHITASGVEITSRNGTVRVINAEKEVIVSAGALKSPAILELSGIGNPSVLDKHNIPVKVNLPTVGENLQDQVNSHMDASGNTSISGTKAVSYPDVYDVFGDEAESVAKQIRANLKQYAADTAKANGNIMKAADLERLFEVQYDLIFKGRVPIAEVLNYPGSATSMFAEFWALLPFARGSVHIGSSNPAEFPVINPNYFMLDWDAKSYVAVAKYIRRSFESYPLSSIVKESTPGYDVIPRNASEQSWKEWVFDKNYRSNFHPVGTAAMMPREIGGVVDERLNVYGTTNVRVVDASVLPFQVCGHLVSTLYAVAERAADLIKADAGRR | 44.8%
3 | M342L + K354N: modified GLD: SEQ ID NO: 1 with substitutions M342L, K354N (protein, listed as Aspergillus terreus, SIGNAL (1)..(19)) MLGKLSFLSALSLAVAAPLSNSTSAKYDYIVIGGGTSGLAVANRLSEDPNVNVLILEAGGSVWNNPNVTNVDGYGLAFGSDIDWQYQSVNQPYGGNLSQVLRAGKALGGTSTINGMAYTRAEDVQIDAWETIGNTGWTWKNLFPYYRKSENFTVPTKSQTSLGASYEAGAHGHEGPLDVAFTQIESNNLTTYLNRTFQGMGLPWTEDVNGGKMRGFNLYPSTVNLEEYVREDAARAYYWPYKSRPNLHVLLNTFANRIVWDGEAHDGHITASGVEITSRNGTVRVINAEKEVIVSAGALKSPAILELSGIGNPSVLDKHNIPVKVNLPTVGENLQDQVNSHLDASGNTSISGTNAVSYPDVYDVFGDEAESVAKQIRANLKQYAADTAKANGNIMKAADLERLFEVQYDLIFKGRVPIAEVLNYPGSATSVFAEFWALLPFARGSVHIGSSNPAEFPVINPNYFMLDWDAKSYVAVAKYIRRSFESYPLSSIVKESTPGYDVIPRNASEQSWKEWVFDKNYRSNFHPVGTAAMMPREIGGVVDERLNVYGTTNVRVVDASVLPFQVCGHLVSTLYAVAERAADLIKADAGRR | 69.8%
4 | D343N + S490C: modified GLD: SEQ ID NO: 1 with substitutions D343N, S490C (protein, listed as Aspergillus terreus, SIGNAL (1)..(19)) MLGKLSFLSALSLAVAAPLSNSTSAKYDYIVIGGGTSGLAVANRLSEDPNVNVLILEAGGSVWNNPNVTNVDGYGLAFGSDIDWQYQSVNQPYGGNLSQVLRAGKALGGTSTINGMAYTRAEDVQIDAWETIGNTGWTWKNLFPYYRKSENFTVPTKSQTSLGASYEAGAHGHEGPLDVAFTQIESNNLTTYLNRTFQGMGLPWTEDVNGGKMRGFNLYPSTVNLEEYVREDAARAYYWPYKSRPNLHVLLNTFANRIVWDGEAHDGHITASGVEITSRNGTVRVINAEKEVIVSAGALKSPAILELSGIGNPSVLDKHNIPVKVNLPTVGENLQDQVNSHMNASGNTSISGTKAVSYPDVYDVFGDEAESVAKQIRANLKQYAADTAKANGNIMKAADLERLFEVQYDLIFKGRVPIAEVLNYPGSATSVFAEFWALLPFARGSVHIGSSNPAEFPVINPNYFMLDWDAKSYVAVAKYIRRSFESYPLCSIVKESTPGYDVIPRNASEQSWKEWVFDKNYRSNFHPVGTAAMMPREIGGVVDERLNVYGTTNVRVVDASVLPFQVCGHLVSTLYAVAERAADLIKADAGRR | 61.8% and 71.1%
5 | G426S + A578V: modified GLD: SEQ ID NO: 1 with substitutions G426S, A578V (protein, listed as Aspergillus terreus, SIGNAL (1)..(19)) MLGKLSFLSALSLAVAAPLSNSTSAKYDYIVIGGGTSGLAVANRLSEDPNVNVLILEAGGSVWNNPNVTNVDGYGLAFGSDIDWQYQSVNQPYGGNLSQVLRAGKALGGTSTINGMAYTRAEDVQIDAWETIGNTGWTWKNLFPYYRKSENFTVPTKSQTSLGASYEAGAHGHEGPLDVAFTQIESNNLTTYLNRTFQGMGLPWTEDVNGGKMRGFNLYPSTVNLEEYVREDAARAYYWPYKSRPNLHVLLNTFANRIVWDGEAHDGHITASGVEITSRNGTVRVINAEKEVIVSAGALKSPAILELSGIGNPSVLDKHNIPVKVNLPTVGENLQDQVNSHMDASGNTSISGTKAVSYPDVYDVFGDEAESVAKQIRANLKQYAADTAKANGNIMKAADLERLFEVQYDLIFKGRVPIAEVLNYPSSATSVFAEFWALLPFARGSVHIGSSNPAEFPVINPNYFMLDWDAKSYVAVAKYIRRSFESYPLSSIVKESTPGYDVIPRNASEQSWKEWVFDKNYRSNFHPVGTAAMMPREIGGVVDERLNVYGTTNVRVVDASVLPFQVCGHLVSTLYAVVERAADLIKADAGRR | 65.7%
6 | D343N: modified GLD: SEQ ID NO: 1 with substitution D343N (protein, listed as Aspergillus terreus, SIGNAL (1)..(19)) MLGKLSFLSALSLAVAAPLSNSTSAKYDYIVIGGGTSGLAVANRLSEDPNVNVLILEAGGSVWNNPNVTNVDGYGLAFGSDIDWQYQSVNQPYGGNLSQVLRAGKALGGTSTINGMAYTRAEDVQIDAWETIGNTGWTWKNLFPYYRKSENFTVPTKSQTSLGASYEAGAHGHEGPLDVAFTQIESNNLTTYLNRTFQGMGLPWTEDVNGGKMRGFNLYPSTVNLEEYVREDAARAYYWPYKSRPNLHVLLNTFANRIVWDGEAHDGHITASGVEITSRNGTVRVINAEKEVIVSAGALKSPAILELSGIGNPSVLDKHNIPVKVNLPTVGENLQDQVNSHMNASGNTSISGTKAVSYPDVYDVFGDEAESVAKQIRANLKQYAADTAKANGNIMKAADLERLFEVQYDLIFKGRVPIAEVLNYPGSATSVFAEFWALLPFARGSVHIGSSNPAEFPVINPNYFMLDWDAKSYVAVAKYIRRSFESYPLSSIVKESTPGYDVIPRNASEQSWKEWVFDKNYRSNFHPVGTAAMMPREIGGVVDERLNVYGTTNVRVVDASVLPFQVCGHLVSTLYAVAERAADLIKADAGRR | 65.2%
7 | D343E + L562H: modified GLD: SEQ ID NO: 1 with substitutions D343E, L562H (protein, listed as Aspergillus terreus, SIGNAL (1)..(19)) MLGKLSFLSALSLAVAAPLSNSTSAKYDYIVIGGGTSGLAVANRLSEDPNVNVLILEAGGSVWNNPNVTNVDGYGLAFGSDIDWQYQSVNQPYGGNLSQVLRAGKALGGTSTINGMAYTRAEDVQIDAWETIGNTGWTWKNLFPYYRKSENFTVPTKSQTSLGASYEAGAHGHEGPLDVAFTQIESNNLTTYLNRTFQGMGLPWTEDVNGGKMRGFNLYPSTVNLEEYVREDAARAYYWPYKSRPNLHVLLNTFANRIVWDGEAHDGHITASGVEITSRNGTVRVINAEKEVIVSAGALKSPAILELSGIGNPSVLDKHNIPVKVNLPTVGENLQDQVNSHMEASGNTSISGTKAVSYPDVYDVFGDEAESVAKQIRANLKQYAADTAKANGNIMKAADLERLFEVQYDLIFKGRVPIAEVLNYPGSATSVFAEFWALLPFARGSVHIGSSNPAEFPVINPNYFMLDWDAKSYVAVAKYIRRSFESYPLSSIVKESTPGYDVIPRNASEQSWKEWVFDKNYRSNFHPVGTAAMMPREIGGVVDERLNVYGTTNVRVVDASVHPFQVCGHLVSTLYAVAERAADLIKADAGRR | 51.8%
